B1: mouse TOP6BL (Topoisomerase VIB-like) (natural protein, UniProt J3QMY9-1 1-579, looked up)
chain: MERTALAVCEILRYLIIHWKCEAGTAKGTLLDGQLVISIEALRSKHLPDSLHCIITIASTRSVYGGLNFKKFLQEIQPALPRLSAKLALASEEGGRSQDASGIAPCQVTFEVDENSQSLMTDCLVIKHFLRKIIIVHHKLKFSFSVAVNGTLSAETFGAENEPTLRLDNGVTLVVGFQRYVSKPKLNWSEAHCSRIHPVLGHPAPLFIPDAKADTGLLGELTLTPAAALCPSPKGFSSQLCRISSVSIFLYGPLGLPLLSSDQDQPSTAVFRDTSYFIDWKKYNLFMVPNLDLNLDTQSVLPDVNYKAESPEGNQSQNMNAQGPALLLFLFVDFQSDVPVQQAKIWGLHTLLTAHLSAILSESRSTVQQSIQSAVDQVWQLYHHDAKTQQRLQASLSVAVNSIMSVLTGSTRSSFRKTCLQALEAADTQEFGVKLHRIFYDITQHQFLKHCSCDTEQHLTPEKNISAQNTKDQHKNIAQEFPEESIGQAENKRPKRGSPNHGREESRVLGSARDRSPPKSATRDRELTEVSLTARGSQTQAAHGRAQAAEAASPAGGLEDLWLQEVSNLSEWLNPGHRS
notes: TOP6BL, mouse, untagged, full-length optimized coding DNA
B2: Flag-tagged mouse SPO11 (natural protein, UniProt Q9WTK8-1 1-396, looked up)
chain: MAFAPMGPEASFFDALDRHRASLLAMVKRGAGETPAGATRVASSSEVLTAIENIIQDIIKSLARNEVPAFTIDNRSSWENIMFDDSVGLRMIPQCTTRKIRSDSPKSVKKFALILKVLSMIYKLIQSDTYATKRDIYYTDSQLFGNQAAVDSAIDDISCMLKVPRRSLHVLSTSKGLIAGNLRYMEEDGTRVQCTCSATATAVPTNIQGMQHLITDAKFLLIVEKDATFQRLLDDNFCSRMSPCIMVTGKGVPDLNTRLLVKKLWDTFHIPVFTLVDADPYGIEIMCIYKYGSMSMSFEAHNLTIPTIRWLGLLPSDIQRLNIPKDSLIPLTKHDQMKLDSILKRPYITYQPLWKKELEMMADSKMKAEIQALTLLSSDYLSRVYLPNKLRFGGWI
notes: SPO11, mouse, b splicing isoform (includes exon 2), full-length optimized coding DNA; A TEV cleavage site stands between the Flag tag and SPO11; no cleavage is described; also called FlagSPO11; SPO11b; not shown: Flag, N-terminal, kept

Legend:
Flag-tagged mouse SPO11 = molecular target: B2; assay: SEC; Superdex 200 Increase 10/300 GL after anti-Flag M2 affinity purification of the co-expressed proteins; lysis buffer 25 mM HEPES-NaOH pH 7.5, 500 mM NaCl; settings: both partners purified
[1] = molecular target: B1; assay: mass photometry; Refeyn OneMP; 28 nM protein; 25 mM HEPES-NaOH pH 7.5, 150 mM NaCl, 2 mM DTT; with 5 mM ATP; settings: both partners purified
[2] = molecular target: T1, SPO11 (beta isoform), WT, in complex with TOP6BL;TOP6BL (Mus musculus;Mus musculus, UniProt Q9WTK8;J3QMY9 1-396;1-579, |); assay: EMSA; apparent Kd (first monomer complex); 5 mM Mg2+, 4 C, 50 mM NaCl; doubly bound complexes form; EMSA: 25 mM Tris-HCl pH 7.5, 100 mM NaCl, 5 mM MgCl2, 2 mM DTT, 7.5% glycerol, 1 mg/ml BSA, 0.1 nM DNA, 30 C 30 min; cleavage substrate: 25 mM HEPES-NaOH pH 7.5, 50 mM NaCl, 5 mM MgCl2, 2 mM DTT, 7.5% glycerol, 1 mg/ml BSA, 4 C 30 min; settings: protein: recombinant;recombinant; tags: N-terminal Flag-TEV;untagged; copies: 1;1; label: internal 32P (5'-labeled before ligation); closed dumbbell, 44 bp duplex, A4 loop at both ends
T1 sequence 1: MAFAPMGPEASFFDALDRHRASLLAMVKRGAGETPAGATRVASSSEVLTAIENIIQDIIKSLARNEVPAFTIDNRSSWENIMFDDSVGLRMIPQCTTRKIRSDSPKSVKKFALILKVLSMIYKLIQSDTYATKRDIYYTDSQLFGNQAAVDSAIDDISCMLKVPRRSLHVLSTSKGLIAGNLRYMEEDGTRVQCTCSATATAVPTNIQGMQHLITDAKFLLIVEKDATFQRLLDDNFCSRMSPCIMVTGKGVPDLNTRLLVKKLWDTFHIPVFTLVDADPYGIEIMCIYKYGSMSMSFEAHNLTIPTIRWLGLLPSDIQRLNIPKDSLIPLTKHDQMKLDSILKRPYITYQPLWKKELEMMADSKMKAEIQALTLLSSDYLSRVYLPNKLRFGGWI
T1 sequence 2: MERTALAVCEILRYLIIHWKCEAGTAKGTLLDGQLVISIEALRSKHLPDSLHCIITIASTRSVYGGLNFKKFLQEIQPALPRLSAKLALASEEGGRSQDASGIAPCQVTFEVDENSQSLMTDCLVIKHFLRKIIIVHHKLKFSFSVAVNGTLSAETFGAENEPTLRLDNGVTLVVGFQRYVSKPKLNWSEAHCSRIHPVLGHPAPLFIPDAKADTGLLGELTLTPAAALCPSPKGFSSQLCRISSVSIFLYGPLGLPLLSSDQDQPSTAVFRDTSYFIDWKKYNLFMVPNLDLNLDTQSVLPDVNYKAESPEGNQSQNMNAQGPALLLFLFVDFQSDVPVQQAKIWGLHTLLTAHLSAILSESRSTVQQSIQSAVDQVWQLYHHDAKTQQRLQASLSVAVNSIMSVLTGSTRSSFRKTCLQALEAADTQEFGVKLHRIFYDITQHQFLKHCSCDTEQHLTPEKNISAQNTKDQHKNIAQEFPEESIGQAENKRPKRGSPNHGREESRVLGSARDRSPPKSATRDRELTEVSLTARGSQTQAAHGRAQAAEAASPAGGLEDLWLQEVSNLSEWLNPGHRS

Binder: B1
- stoichiometry N (Flag-tagged mouse SPO11): 1

Binder: B2
- binding result [1]: binds

B3: oligonucleotide cleavage substrate, 44 bp duplex with A4 loops (structured_DNA)
DNA: CGGTTCAAAAGAACCGGAGCTGAATGAAGCCATACCAAACGACGAGCGTGACACAAAAGTGTCACGCTCGTCGTTTGGTATGGCTTCATTCAGCTC
modifications: circular, ligated by T4 DNA ligase
- Kd [2]: 1.8 nM
